# In patent publication US20200377573:
# Molecular target: HTRA1-inhibiting peptides (Example 3-2 and 3-3, members not named)
row,Protein,protease activity (decomposition of a peptide substrate)
1,Human tPA (protein) SYQVICRDEKTQMIYQQHQSWLRPVLRSNRVEYCWCNSGRAQCHSVPVKSCSEPRCFNGGTCQQALYFSDFVCQCPEGFAGKCCEIDTRATCYEDQGISYRGTWSTAESGAECTNWNSSALAQKPYSGRRPDAIRLGLGNHNYCRNPDRDSKPWCYVFKAGKYSSEFCSTPACSEGNSDCYFGNGSAYRGTHSLTESGASCLPWNSMILIGKVYTAQNPSAQALGLGKHNYCRNPDGDAKPWCHVLKNRRLTWEYCDVPSCSTCGLRQYSQPQFRIKGGLFADIASHPWQAAIFAKHRRSPGERFLCGGILISSCWILSAAHCFQERFPPHHLTVILGRTYRVVPGEEEQKFEVEKYIVHKEFDDDTYDNDIALLQLKSDSSRCAQESSVVRTVCLPPADLQLPDWTECELSGYGKHEALSPFYSERLKEAHVRLYPSSRCTSQHLLNRTVTDNMLCAGDTRSGGPQANLHDACQGDSGGPLVCLNDGRMTLVGIISWGLGCGQKDVPGVYTKVTNYLDWIRDNMRP,did not suppress the protease activity of any of the proteases at a final inhibitor concentration of 1 micro M
2,Human plasmin (protein) KVYLSECKTGNGKNYRGTMSKTKNGITCQKWSSTSPHRPRFSPATHPSEGLEENYCRNPDNDPQGPWCYTTDPEKRYDYCDILECEEECMHCSGENYDGKISKTMSGLECQAWDSQSPHAHGYIPSKFPNKNLKKNYCRNPDRELRPWCFTTDPNKRWELCDIPRCTTPPPSSGPTYQCLKGTGENYRGNVAVTVSGHTCQHWSAQTPHTHNRTPENFPCKNLDENYCRNPDGKRAPWCHTTNSQVRWEYCKIPSCDSSPVSTEQLAPTAPPELTPVVQDCYHGDGQSYRGTSSTTTTGKKCQSWSSMTPHRHQKTPENYPNAGLTMNYCRNPDADKGPWCFTTDPSVRWEYCNLKKCSGTEASVVAPPPVVLLPDVETPSEEDCMFGNGKGYRGKRATTVTGTPCQDWAAQEPHRHSIFTPETNPRAGLEKNYCRNPDGDVGGPWCYTTNPRKLYDYCDVPQCAAPSFDCGKPQVEPKKCPGRVVGGCVAHPHSWPWQVSLRTRFGMHFCGGTLISPEWVLTAAHCLEKSPRPSSYKVILGAHQEVNLEPHVQEIEVSRLFLEPTRKDIALLKLSSPAVITDKVIPACLPSPNYVVADRTECFITGWGETQGTFGAGLLKEAQLPVIENKVCNRYEFLNGRVQSTELCAGHLAGGTDSCQGDSGGPLVCFEKDKYILQGVTSWGLGCARPNKPGVYVRVSRFVTWIEGVMRNN,did not suppress the protease activity of any of the proteases at a final inhibitor concentration of 1 micro M
3,Human chymase (protein) IIGGTECKPHSRPYMAYLEIVTSNGPSKFCGGFLIRRNFVLTAAHCAGRSITVTLGAHNITEEEDTWQKLEVIKQFRHPKYNTSTLHHDIMLLKLKEKASLTLAVGTLPFPSQFNFVPPGRMCRVAGWGRTGVLKPGSDTLQEVKLRLMDPQACSHFRDFDHNLQLCVGNPRKTKSAFKGDSGGPLLCAGVAQGIVSYGRSDAKPPAVFTRISHYRPWINQILQAN,did not suppress the protease activity of any of the proteases at a final inhibitor concentration of 1 micro M
4,Human HTRA2 (protein) AVPSPPPASPRSQYNFIADVVEKTAPAVVYIEILDRHPFLGREVPISNGSGFVVAADGLIVTNAHVVADRRRVRVRLLSGDTYEAVVTAVDPVADIATLRIQTKEPLPTLPLGRSADVRQGEFVVAMGSPFALQNTITSGIVSSAQRPARDLGLPQTNVEYIQTDAAIDFGNSGGPLVNLDGEVIGVNTMKVTAGISFAIPSDRLREFLHRGEKKNSSSGISGSQRRYIGVMMLTLSPSILAELQLREPSFPDVQHGVLIHKVILGSPAHRAGLRPGDVILAIGEQMVQNAEDVYEAVRTQSQLAVQIRRGRETLTLYVTPEVTE,did not suppress the protease activity of any of the proteases at a final inhibitor concentration of 1 micro M
5,Human matriptase (protein) VVGGTDADEGEWPWQVSLHALGQGHICGASLISPNWLVSAAHCYIDDRGFRYSDPTQWTAFLGLHDQSQRSAPGVQERRLKRIISHPFFNDFTFDYDIALLELEKPAEYSSMVRPICLPDASHVFPAGKAIWVTGWGHTQYGGTGALILQKGEIRVINQTTCENLLPQQITPRMMCVGFLSGGVDSCQGDSGGPLSSVEADGRIFQAGVVSWGDGCAQRNKPGVYTRLPLFRDWIKENTGV,did not suppress the protease activity of any of the proteases at a final inhibitor concentration of 1 micro M
